{
  "source": "patent US20140004106A1",
  "binders": {"B1": {"name": "Lead CXCR5 Antibody (humanized IgG4 anti-CXCR5 antibody) (antibody, V domains shown)", "VH": "QVQLKESGPGLVAPSESLSITCTVSGFSLIDYGVNWIRQPPGKGLEWLGVIWGDGTTYYNPSLKSRLSISKDNSKSQVFLKVTSLTTDDTAMYYCARIVYWGQGTLVTVSA", "VL": "DIVMTQAAPSVAVTPGASVSISCRSSKSLLHSSGKTYLYWFLQRPGQSPQLLIYRLSSLASGVPDRFSGSGSGTAFTLRISRVEAEDVGVYYCMQHLEYPYTFGGGTKLEIKR"}},
  "key": {"[1]": {"biological_target": "28mer peptide of the CXCR5 antigen", "experiment": "Antigen-ELISA; standard run with LA_09_28B, T0"}, "[2]": {"biological_target": "28mer peptide of the CXCR5 antigen", "experiment": "Antigen-ELISA; Histidine 10 mM pH 5.5, T0"}, "[3]": {"biological_target": "28mer peptide of the CXCR5 antigen", "experiment": "Antigen-ELISA; TRIS 10 mM pH 8.5, after 1 week at +40°C"}, "[4]": {"biological_target": "28mer peptide of the CXCR5 antigen", "experiment": "Antigen-ELISA; Citrate 10 mM pH 7.00, after mechanical stress 350 rpm 2.5 h"}, "[5]": {"biological_target": "28mer peptide of the CXCR5 antigen", "experiment": "Antigen-ELISA; standard run with LA_09_28A, T0"}, "[6]": {"biological_target": "28mer peptide of the CXCR5 antigen", "experiment": "Antigen-ELISA; TRIS 10 mM pH 7.5, after 1 week at +40°C"}, "[7]": {"biological_target": "28mer peptide of the CXCR5 antigen", "experiment": "Potency (Antigen ELISA); stored +5°C, 6 months"}, "[8]": {"biological_target": "28mer peptide of the CXCR5 antigen", "experiment": "Antigen-ELISA; Citrate 10 mM pH 6.00, after mechanical stress 350 rpm 2.5 h"}, "[9]": {"biological_target": "28mer peptide of the CXCR5 antigen", "experiment": "ELISA potency (binding); 100 mg/mL, Sucrose (60) + Mannitol (15), T zero"}, "[10]": {"biological_target": "28mer peptide of the CXCR5 antigen", "experiment": "Antigen-ELISA; PBS 155 mM pH 7.50, after 1 week at +40°C"}, "[11]": {"biological_target": "28mer peptide of the CXCR5 antigen", "experiment": "Antigen-ELISA; PB 10 mM pH 7.00, after mechanical stress 350 rpm 2.5 h"}, "[12]": {"biological_target": "28mer peptide of the CXCR5 antigen", "experiment": "Antigen-ELISA; standard run with LA_09_29B, T0"}, "[13]": {"biological_target": "28mer peptide of the CXCR5 antigen", "experiment": "Antigen-ELISA; PBS 155 mM, clear glass type I as T0, 24 h"}, "[14]": {"biological_target": "28mer peptide of the CXCR5 antigen", "experiment": "Antigen-ELISA; Histidine 10 mM pH 6.5, after 1 week at +40°C"}, "[15]": {"biological_target": "28mer peptide of the CXCR5 antigen", "experiment": "Antigen-ELISA; Saline 150 mM pH 6.00, T0"}, "[16]": {"biological_target": "28mer peptide of the CXCR5 antigen", "experiment": "Antigen-ELISA; Acetate 10 mM pH 5.50, T0"}, "[17]": {"biological_target": "28mer peptide of the CXCR5 antigen", "experiment": "Antigen-ELISA; Citrate 10 mM pH 5.50, after mechanical stress 350 rpm 2.5 h"}, "[18]": {"biological_target": "28mer peptide of the CXCR5 antigen", "experiment": "Antigen-ELISA; PB 5 mM pH 7.50, T0"}, "[19]": {"biological_target": "28mer peptide of the CXCR5 antigen", "experiment": "Antigen-ELISA; PB 5 mM pH 7.00, after 1 week at +40°C"}, "[20]": {"biological_target": "28mer peptide of the CXCR5 antigen", "experiment": "Antigen-ELISA; Glycine 10 mM pH 7, after 1 week at +40°C"}, "[21]": {"biological_target": "28mer peptide of the CXCR5 antigen", "experiment": "Antigen-ELISA; standard run with LA 09_004_9"}, "[22]": {"biological_target": "28mer peptide of the CXCR5 antigen", "experiment": "ELISA potency (binding); 100 mg/mL, Trehalose (60) + NaCl (2), T zero"}, "[23]": {"biological_target": "28mer peptide of the CXCR5 antigen", "experiment": "Antigen-ELISA; standard run with LA_09_27D, T0"}, "[24]": {"biological_target": "28mer peptide of the CXCR5 antigen", "experiment": "ELISA potency (binding); 100 mg/mL, Trehalose (60) + NaCl (2), 7 days at 40°C"}, "[25]": {"biological_target": "28mer peptide of the CXCR5 antigen", "experiment": "Ag-ELISA; DS in PBS, 5°C, 1 month"}, "[26]": {"biological_target": "28mer peptide of the CXCR5 antigen", "experiment": "Antigen-ELISA; Arginine 10 mM pH 8, after 1 week at +40°C"}, "[27]": {"biological_target": "28mer peptide of the CXCR5 antigen", "experiment": "Antigen-ELISA; Citrate 10 mM pH 5.00, after mechanical stress 350 rpm 2.5 h"}, "[28]": {"biological_target": "28mer peptide of the CXCR5 antigen", "experiment": "Antigen-ELISA; standard run with LA_09_004_7"}, "[29]": {"biological_target": "28mer peptide of the CXCR5 antigen", "experiment": "Antigen-ELISA; PBS 155 mM pH 6.50, after mechanical stress 350 rpm 2.5 h"}, "[30]": {"biological_target": "28mer peptide of the CXCR5 antigen", "experiment": "Antigen-ELISA; PBS 155 mM, 1 h purged with air, 24 h"}, "[31]": {"biological_target": "28mer peptide of the CXCR5 antigen", "experiment": "Potency (Antigen ELISA); stored +25°C, initial"}, "[32]": {"biological_target": "28mer peptide of the CXCR5 antigen", "experiment": "Antigen-ELISA; Citrate 10 mM pH 7.00, T0"}, "[33]": {"biological_target": "28mer peptide of the CXCR5 antigen", "experiment": "Antigen-ELISA; histidine 10 mM prototype D, T0"}, "[34]": {"biological_target": "28mer peptide of the CXCR5 antigen", "experiment": "Antigen-ELISA; PBS 155 mM, clear glass type I, 24 h +40°C"}, "[35]": {"biological_target": "28mer peptide of the CXCR5 antigen", "experiment": "Potency (Antigen ELISA); stored +5°C, 3 months"}, "[36]": {"biological_target": "28mer peptide of the CXCR5 antigen", "experiment": "Antigen-ELISA; standard run with LA_09_28D, T0"}, "[37]": {"biological_target": "28mer peptide of the CXCR5 antigen", "experiment": "Potency (Antigen ELISA); stored +5°C, 1 month"}, "[38]": {"biological_target": "28mer peptide of the CXCR5 antigen", "experiment": "Antigen-ELISA; Citrate 10 mM pH 5.00, after 1 week at +40°C"}, "[39]": {"biological_target": "28mer peptide of the CXCR5 antigen", "experiment": "Antigen-ELISA; PBS 155 mM pH 6.50, T0"}, "[40]": {"biological_target": "28mer peptide of the CXCR5 antigen", "experiment": "Antigen-ELISA; Citrate 10 mM pH 7.00, after 1 week at +40°C"}, "[41]": {"biological_target": "28mer peptide of the CXCR5 antigen", "experiment": "ELISA potency (binding); 100 mg/mL, Lysine (30) + Mannitol (15), T zero"}, "[42]": {"biological_target": "28mer peptide of the CXCR5 antigen", "experiment": "ELISA potency (binding); 100 mg/mL, Sucrose (60) + NaCl (2), T zero"}, "[43]": {"biological_target": "28mer peptide of the CXCR5 antigen", "experiment": "ELISA potency (binding); 100 mg/mL, Arginine (20) + NaCl (2), 7 days at 40°C"}},
  "data": [
    {"binder": "B1", "values": [
      {"measurement": "EC50 %", "setting": "[1]", "result": 100, "unit": "%"},
      {"measurement": "EC50 %", "setting": "[2]", "result": 57, "unit": "%"},
      {"measurement": "EC50 %", "setting": "[3]", "result": 237, "unit": "%"},
      {"measurement": "EC50 %", "setting": "[4]", "result": 101, "unit": "%"},
      {"measurement": "EC50 %", "setting": "[5]", "result": 100, "unit": "%"},
      {"measurement": "EC50 %", "setting": "[6]", "result": 184, "unit": "%"},
      {"measurement": "EC50 value (in comparison to reference)", "setting": "[7]", "result": 97, "unit": "%"},
      {"measurement": "EC50 %", "setting": "[8]", "result": 136, "unit": "%"},
      {"measurement": "rel. potency [%]", "setting": "[9]", "result": 205, "unit": "%"},
      {"measurement": "EC50 %", "setting": "[10]", "result": 52, "unit": "%"},
      {"measurement": "EC50 %", "setting": "[11]", "result": 61.4, "unit": "%"},
      {"measurement": "EC50 %", "setting": "[12]", "result": 100, "unit": "%"},
      {"measurement": "EC50 %", "setting": "[13]", "result": 62.3, "unit": "%"},
      {"measurement": "EC50 %", "setting": "[14]", "result": 175, "unit": "%"},
      {"measurement": "EC50 %", "setting": "[15]", "result": 96.2, "unit": "%"},
      {"measurement": "EC50 %", "setting": "[16]", "result": 180, "unit": "%"},
      {"measurement": "EC50 %", "setting": "[17]", "result": 79, "unit": "%"},
      {"measurement": "EC50 %", "setting": "[18]", "result": 176, "unit": "%"},
      {"measurement": "EC50 %", "setting": "[19]", "result": 68, "unit": "%"},
      {"measurement": "EC50 %", "setting": "[20]", "result": 65, "unit": "%"},
      {"measurement": "EC50 %", "setting": "[21]", "result": 100, "unit": "%"},
      {"measurement": "rel. potency [%]", "setting": "[22]", "result": 110, "unit": "%"},
      {"measurement": "EC50 %", "setting": "[23]", "result": 100, "unit": "%"},
      {"measurement": "rel. potency [%]", "setting": "[24]", "result": 191, "unit": "%"},
      {"measurement": "EC50 %", "setting": "[25]", "result": 83, "unit": "%"},
      {"measurement": "EC50 %", "setting": "[26]", "result": 88, "unit": "%"},
      {"measurement": "EC50 %", "setting": "[27]", "result": 99, "unit": "%"},
      {"measurement": "EC50 %", "setting": "[28]", "result": 100, "unit": "%"},
      {"measurement": "EC50 %", "setting": "[29]", "result": 79.3, "unit": "%"},
      {"measurement": "EC50 %", "setting": "[30]", "result": 84.3, "unit": "%"},
      {"measurement": "EC50 value (in comparison to reference)", "setting": "[31]", "result": 75, "unit": "%"},
      {"measurement": "EC50 %", "setting": "[32]", "result": 59.9, "unit": "%"},
      {"measurement": "EC50 %", "setting": "[33]", "result": 169, "unit": "%"},
      {"measurement": "EC50 %", "setting": "[34]", "result": 131, "unit": "%"},
      {"measurement": "EC50 value (in comparison to reference)", "setting": "[35]", "result": 95, "unit": "%"},
      {"measurement": "EC50 %", "setting": "[36]", "result": 100, "unit": "%"},
      {"measurement": "EC50 value (in comparison to reference)", "setting": "[37]", "result": 105, "unit": "%"},
      {"measurement": "EC50 %", "setting": "[38]", "result": 75, "unit": "%"},
      {"measurement": "EC50 %", "setting": "[39]", "result": 139, "unit": "%"},
      {"measurement": "EC50 %", "setting": "[40]", "result": 111, "unit": "%"},
      {"measurement": "rel. potency [%]", "setting": "[41]", "result": 88, "unit": "%"},
      {"measurement": "rel. potency [%]", "setting": "[42]", "result": 165, "unit": "%"},
      {"measurement": "rel. potency [%]", "setting": "[43]", "result": 164, "unit": "%"}
    ]}
  ]
}
